# Results as given in the nanobody polyreactivity screen of Harvey et al. (2022).
# Test: yeast display, Sf9 membrane polyspecificity reagent, FACS + sequencing; frameworks hold sequencing errors
# Method in brief: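 Sorting gates, low and high (top ~1%), were placed on anti-HA fluorescence to track expression and on streptavidin fluorescence to track reagent binding. A clone's polyreactivity label is taken from the gate it came out of. The reagent was 10% biotinylated, detergent-solubilized Sf9 membrane, applied for 1 hour at 4 °C to galactose-induced yeast display cells.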
row,Sequence,polyreactivity (PSR sort gate)
1,QVQLVESGGGLVQAGGSLRLSCAASGSIFSSNTMGWYRPAPGKERELVAAITSGGGTYYADSVKGRFTISRDNAKNTVYLQMNSLKPEDTAVYYCAAQRVYKSSPSYDYWGQGTQVTVSS,low polyreactivity
2,QVQLVDSGGGLVQAGGSLRLSCAASGGTFDTYAMGWYRQAPGKERELVAVIRASGGDTYYADSVKGRFTISRDNAKNTVYLQMNSLKPEDTAVYYCAAVLPFKYDYWGQGTQVTVSS,low polyreactivity
3,QVQLVESGGGLVQAGGSLRLSCAASGFIFGGYAMGWYRQAPGKERELVAAISWSGDNTYYADSVKGRFTISRDNAKNTVYLQMNSLKPEDTAVYYCAADSYGQEYDYWGQGTQVTVSS,low polyreactivity
4,QVQLVESGGGLVQAGGSLRLSCAASGITFYFYTMGWYRQAPGKERELVAAISRGGGSTYYADSVKGRFTISRDNAKNTVYLQMNSLKPEDTAVYYCAADYKPHYYHDDYWGQGTQVTVSS,low polyreactivity
5,QFQLVESGGGLVQAGGSLRLSCAASGIIFGAYVMGWYRQAPGKERELVAVISWSSTSTYYADSVKGRFTISRDNAKNTVYLQMNSLKPEDTAVYYCNARYLRRGDYWGQGTQVTVSS,low polyreactivity
6,QVQLVESGGGLVQAGGSLRLSCAASGDISYIYAMGWYRQAPGKEREMVADISSSVGNTYYADSVKGRFTISRDNAKNTVYLQMNSLKPEDTAVYYCNADYVQPTESGGTYDYWGQGTQVTVSS,low polyreactivity
7,QVQLVESGGGLVQAGGSLLLSSAASGFTFGNNDMGWYRKSHGKERELVDAITKRGSSTYYADSVKGRFTISRDNAKNTVYLQMNSLKPEDTAVYHCAASWLGASGIRYDYWGQGTLVTVSS,high polyreactivity
8,QVQLVESAGGLVQAGGSLRLSCAASGSIFTYYAMGWYIQAPGKERELVAAISSDGGRTFYADSVKGRFTISRDNAKNTVYLQMNSLKPEDTAVYYCAAETNRFPGYGYWGQGTQVTVSS,low polyreactivity
9,QVHLVESGGGLVQAGGSLRLSSAATGSIIYWYDMGWYRQAPGKERELVAAITNDGDSTYYADSVKGRFTISRDNAKNTVYLQMNSLKPEDTAVYYCAADVLFYYEYGSWGQGTQVTVSS,low polyreactivity
10,QVQLVESGGGLVQAGGSLRLSCAASGFIFVGNAMGGYRQAPGKERELVAAITSTDNTTYADSVKGRFTISRDNAKNTVYLQMNSLKPEDTAVYYCNARGYPYLYGYDYWGQGTQVTVSS,low polyreactivity
11,QVQLVESGGGLVQAGGSLRLSCAASGSIFRGYAMGWYRQAPGKERELVAAITSSGGSTNYADSVKGRFTISRDNAKNTVYLQMNSLKPEDTAVYYCAKAPGLWHLIQRMDYWGQVTQVTVSS,low polyreactivity
12,QVQLVESGGGLVQAGGSLRLSCAASGNIFGDYAMGWYRQAPGKERELVAAITQTGGNTYYADSVKGRFTISRDNAKNTVYLQMNSLKPEDTAVYYCNKVSVVYSRSKGFYYTYLKYEYWGQGTQVTVSS,low polyreactivity
13,QVQHVDSGGGLVQAGGSLLLSCAASGFTFRTYAMGWYRQAPGKEREFVAAITTSGGSTYYADSVKGRFTISRDNAKNTVYLQMNSLKPEDTAVYYCAAKKATVVYRMEYWGQGTLVTVSS,high polyreactivity
14,QVQLVESGGGLVQAGGSLRLSCAASGSNIYPNAMGWYRQEPGKEREFVAVISSGGSTYYADSVKGRFTISRDNAKNTVYLQMNSMKPEDTAVYYCAADRGTVSFLYSPRAVDYWGQGTQVTVSS,low polyreactivity
15,QVQLVESGGGLVQAGGSLRLSCAASGSIFVLYAMGWYRQAPGKERELVAAINYDGASTYYADSVKGRFTISRDNAKNTVYLQMNSLKPEDTAVYYCAARWQFNIDVQLYLFEYWGQGTEVTVSS,low polyreactivity
16,QVQLVESGGGLVQAGGSLRLSCAASGSTLERNAMGWYRQAPGKERELVAAITSSTGSTYYADSVKGRFTISRDNAKNTVYLQMNSLKPEDTAVYYFAKRVASVQSNRHDYWGQGTQVTVSS,high polyreactivity
17,QVQLVESGGGLVQAGGSLRLSCAASGFIFLPYAMGWYRQAPGKERELVAAITRGGRTYYADSVKGRFTISRDNAKNTVYLQMNSLKPEDTAVYYCAATTYLVWGYNYWGQGTQVTVSS,low polyreactivity
18,QVQLVESGGGLVKAGGSLRLSCAASGSTFRYYAMGWYRQAPGKERELVAGITTGGGRTYYADSVKGRFTISRDNAKNTVYLQMNSLKPEDTAVYYCAADRYSHYWYRISYDYWGQGTQVTVSS,high polyreactivity
19,QVQLVESGGGLVQAGGSLRLSCAASGGTFVFYAMGWYIQAPGKERELVAAISSAGRTYYADAVKGRFTISRDNAKTTVYLQMNSLKPEETAVYYCAAVSSQYDGRYYYWGQGTQVTVSS,high polyreactivity
20,QVQLVESGGGLVQAGGSLRLSCAASGIILGDYAMGWYRQAPGKERELVAAITSTGGRTYYADSVKGRFTISRDNAKNTVYLQMNSLKPEDTAVYYCAAQGSYRRYRPYYYWGQGTQVTVSS,high polyreactivity
21,QVQLVESGGGLVQAGGSLRLSCAASGSIFVYNTMGWYREAPGKERELVASITYSGGSTYYADSVKGRFTISRDNAKNTVYLQMNSLKPEDTAVYYCNTDDVALQWDWYPYPYDYWGQGTQVTVSS,low polyreactivity
22,QVQLVESGGGLVQAGGSLRLSCAASGIIFYYNAMGWYRPAPGNERELVAAISGRGGSTYYADSVKGRVTISRDNAKNTVYLQMTSLKPEDTAVYYCAAARVGSRYGYDYWGQGTQGTVSS,low polyreactivity

row,Sequence,polyreactivity (PSR sort gate)
1,QGQLVESGGGLVQAGGSLRLSCAASGRTFGINAMGWYRQAPGKERELVAVISFGDGGTYYADSVKGRFTISRDNAKNTVYLQMNSLKPEDTAVYYCATDYQSTSVWGGHFVINPYDYWGQGTQVTVSS,low polyreactivity
2,QVQLVESGGGLVQAGGSLRLSCAASGFIFRRNAMGWYRQAPGKERELVAAIRFRSGSTYYAHSVKGRFTISRDNAKNTVYLQKNSLKPEDTAVYYCAADNKRSWRYAYNYWGQRTQVTVSS,high polyreactivity
3,QVQLVESGGGLVQAGGSLRLSCAASGRILKSYAMGWYRQAPGKERELVAAITSSGVSTYYADSVKGRFTISRDNAKNTVYLQMNSLKPEDTAVYYCAARNYRYPIMGYWGQGTEVTVSS,high polyreactivity
4,QVQLVESGGGLVQAGGSLRLSCAASGSTYPYYAMGWYRQAPGKERELVAAITSGGSTNYADSVKGRFTISRDNAKNTVYLQMNSLKPEDTAVYYCNADSSGWFPFDYWGQGTQVTVSS,low polyreactivity
5,QVQLVESGGGLVQAGGSLRLSCAASGSIFGTYAMGWYRQAPGKARELVAAITGSGGRTYYADSVKGRFTISRDNAKNTVYLQMNSLKPEDTAVYYCNKVVYVRSYPPRYDYWGQGTQVTVSS,high polyreactivity
6,QVKLVESGGGLVQAGGSLRLSCAASGFIIGGYGMGWYRQAPGKERELVAVITASGGSTYYADSVKWLFTISRDNAKNTVYLQMNSLKPEDTGVYYCAARVGRYGYSQYYYWGQGTQVTVSS,high polyreactivity
7,QVQLVESGGGLVQAGGSLRLSCAASGFIFIPYAKGWYRQAPGKERELVAAISVSDGTTYYADSVKGRFTISRDNAKNTVYFQMNSLKPEDTAVDYCAARRRAQQGTRDHDYWGQGTQVTVSS,high polyreactivity
8,QVQLVESGGGLVQAGGSLRLSCAASGFTFWLYSMGWYRQAPGKERELVAAISWSGGSTYYADSVKGRFTISRDNAKNTVYFQMNSMKPEDPAVYYCAAVKYVRCAEFYYWGQGTQVTVSS,high polyreactivity
9,QVQLVESGGGLVQAGGSLRLRCAASGNTFFGYDMGWYRQAPGKERELVAAISGSGGGTYYADSVKGRFTISRDNAMNTVYLQMNCLKPEDTAVYYCAADSPQTEGYWGEGTQVTVSS,low polyreactivity
10,QVQLVESGGGLVQAGGSLRLSCAASGSILYGNAMGWYRQAPGKERELVAAISWRGGRTYYADSVKGRFTISRDNAKNTVYLQMNSLKPEDTAVYYCAAQIGLVSGRDYWGQGTQVTVSS,high polyreactivity
11,QVPLVESGGGLVQAGGSLRLSCAASGRIFKSNAMGWYRQAPGKERELVAAISYSGGSTYYADSVKGRFTISRDNAKKTVYLQMNRLKPEDTAVYYCNKYFRREYDYWGQGTQVTVSS,high polyreactivity
12,QVQLVESGGGLVQAGGSLRLSCAASGSIFYDYAMGWYRQATRKERELVPAITNDDSSTYYADSVKGRFTISRDNAKNTVYLQMNSLKPEDTAVYYCRFKYAVAHHFWVYRYDYWGQGTQVTVSS,low polyreactivity
13,LVQLVESGGGLVQAGGSLRLSCAASGSTFANNAMGWYRQAPGKERELVASITTDGSTNYADSVKGRFTISRDNAKNTVYLQMNSLKPEDTAVYYCAAAYQKSPITPKMDYWGQGTQVTVSS,low polyreactivity
14,QVQLLESGGGLVQAGGTLRLSCAASGSTFRYNAMGWYRQAPGKERELVAAITSGGRTNYADSVKGRFTISRDNAKYTFYLQMNSLKPEDTGVYYCAARRYCRNWHNVYWGQGTQVTVSS,high polyreactivity
15,QVQLVESGGGLVQAGGSLRLSCAASGRIFAGYAMGWYRQAPGKERELVAAIRSGGSTNYADSVKGRFTISRDNAKNTVYLQMNSLKPEDTAVYYCAAETPVIPWDEMDYWGQGTQVTVSS,low polyreactivity
16,QVQLVESGGGLVQAGGSLRLSCAASGRIFYGNAMGWYRQAPGKERELVAAITRSGGSTYYADSVKGRFTISRDNAKNTVYLQMKSLKPEDTAVYYCAKYRPGIPYYQYGSWGQGNQVTVSS,high polyreactivity
17,QVQLVESGGGLVQAGGSLRLSCAASGSTFLYYAKGWSRQAPGKERELVAAISGSGGSTYYADSVKGRFTISRDNAKNTVYLQMNSLKPEDTAVYYCNAVARRHGLGPYDYWGQGTQVTVSS,high polyreactivity
18,QVQLVETGGGIVQAGGSLRLSCAASGSTFDGYVMGWYRQEPGKERELVAAISGSGGSTYYADSVKGRFTISRDNAKNTVYFELYSLKPEDTSVYYCAADSWWYDDYSEGDYWGQGTQVTVSS,low polyreactivity
19,QVQLVESGGGLVQAGGSLRLRCAASGLTFVYYAMGWYRQAPVKERELVAAITSGGSTYYADSVKGRFTISRDNAKNTVYLQMNSLKPEDTAVYYCAATYPGFYFLLDEYWGQGTQVTVSS,high polyreactivity
20,QVQLVESGGGLVQAGGSLRLSCAGSGFIFAQNTMGWYRQAPGKERELVAAITRRGGSTYYADSVKGRFTISRDNAKTTVYLQMNSLKPEDTAVYYCARATVGAWRKMYSWGQGTQVTVSS,high polyreactivity
21,QVQLVVSGGGLVQAGGSLRLSCAASGITFYEYAMGWYRQAPGKERELVAAISSSGCTTYYADSVKGLFTISRDNAKNTVYLQLNSLKPEDTAVYYCAVGQRFAIWGPQGSYFYFESDYWGQGTQVTVSS,low polyreactivity
